# Laboratory results: the nanobody polyreactivity screen of Harvey et al. (2022)
# Test: yeast display, Sf9 membrane polyspecificity reagent, FACS + sequencing; frameworks hold sequencing errors
# In short: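 Using colony PCR, genes from sorted yeast display clones were amplified, then sequenced on MiSeq at 2 × 250 and filtered by CDR length. The clones had been stained with 10% biotinylated, detergent-solubilized Sf9 membrane reagent for 1 hour at 4 °C and sorted by FACS into low and high (top ~1%) gates on anti-HA and streptavidin fluorescence. Polyreactivity labels come from the gate of origin.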
row,Sequence,polyreactivity (PSR sort gate)
1,QVQLVESGGGLVQAGGSLRLSCAASGITFERNGMGWYRQAPGKERELVAAIRSGGSTYYADSVKGRFTISRDNAKNTVYLQMNSLKPEDTAVYYCNAPYGRQGYDYWGQGTQVTVSS,low polyreactivity
2,QVQLVESGGGLVQAGGSLRLSCAASGITFEYYAMGWYRQAPGKERELVAAIDTGGSTNYADSVKGRFTISRDNAKNTVYLQMNSLKPEDTAVYYCAADWSWWDGEDYHFEVDYWGQGTQVTVSS,low polyreactivity
3,QVQLVESGGGLVQAGGSLRLSCAASGITFEYYTMGWYRQAPGKERELVAAITSGGSTYYADSVKGRFTISRDNAKNTVYLQMNSLKPEDTAVYYCNADWSATSGEWTWFQYDYWGQGTQVTVSS,high polyreactivity
4,QVQLVESGGGLVQAGGSLRLSCAASGITFFAYAMGWYRQAPGKERELVAAIWRGDNTYYADSVKGRFTISRDNAKNTVYLQMNSLKPEDTAVYYCAARYWSRRIFREGYWGQGTQVTVSS,high polyreactivity
5,QVQLVESGGGLVQAGGSLRLSCAASGITFFRNARGWYRQAPGKEREFVATISRSSGSTYADSVKGRFTISRDNAKNTVYLQMNSLKPEDTAVYYCAAERTYSDSLSFDHWGQGTQVTVSS,low polyreactivity
6,QVQLVESGGGLVQAGGSLRLSCAASGITFFTYAMGWYRQAPGKERELVAAISGSGGSTYYADSVKGRFTISRDNAKNTVYLQMNSLKPEDTAVYYCATDTGYPYSYDLYDSYYWGQGTQVTVSS,low polyreactivity
7,QVQLVESGGGLVQAGGSLRLSCAASGITFGDNDMGWYRQAPGKDRELVASISSGGSTTYADSVKGRFTISRDNAKNTVYLQMNSLKPEDTADYYCNADYGSSVEYNYWGQGTQVTVSS,low polyreactivity
8,QVQLVESGGGLVQAGGSLRLSCAASGITFGDYAMGWYRQAPGKERELVAAISYGGGSTYYADSVKGSFTISRDNAKNTVYLQMNSLKPEDTAVYYCAADGWRTYGYYEYDYWGQGTQVTVSS,low polyreactivity
9,QVQLVESGGGLVQAGGSLRLSCAASGITFGDYDMGWYRPAPGKERELVAAITYDGGTTYYADSVKGRFTISRDNAKNTVYLQMHSLKPEDTAVYYCNADSYRGLYDYWGQGTQVTVSS,low polyreactivity
10,QVQLVESGGGLVQAGGSLRLSCAASGITFGFYAMGWYRQAPGKERELVASITWRGGSTYYADSVKGRFTISRDNAKNTVYLQMNSLKPEDTAVYYCAAEQYVFRPRAQEITTYDYWGQGTQVTVTS,high polyreactivity
11,QVQLVESGGGLVQAGGSLRLSCAASGITFGKNAMGWYRQAPGKESEFVAAISWGGGRTYYADSVKGRFTISRDNAKNTVYLQMNSLKPEDTAVYYCNVGPRAGWYRSNYDYWGQGTQVTVSS,low polyreactivity
12,QVQLVESGGGLVQAGGSLRLSCAASGITFGLYVMGWYRQAPRKERELVAANSSGGSTNYADSVKGRFTISRDNAKNPVYLQMNSLKPEDTAVYYCNADRLRPEYDYWGQGTQVTVSS,low polyreactivity
13,QVQLVESGGGLVQAGGSLRLSCAASGITFGPYAMGWYRQAPGKERELVAAITWGGGSTYYADSVKGRFTISRDNAKNTVYFQMNSLKPEDTAVYYCAASVEWYGWYPYDFWGQGTQVTVSS,low polyreactivity
14,QVQLVESGGGLVQAGGSLRLSCAASGITFGRNTMGWYRQAPGKERELVAAIDSGGNTYADSVKGRFTISRDNAKNTVYLLMNSLKPDDTAVYYCAVDGGEFSSYVYWGQGTQVTVSS,low polyreactivity
15,QVQLVESGGGLVQAGGSLRLSCAASGITFGRYAMGWYREAPGKERELVAAISRRGGSTHYADSVKGRFTISRDNAKNTVYLQMNSLKPEDTAVYYCNASPYRYRPSEYDYWGQGTQVTVSS,high polyreactivity
16,QVQLVESGGGLVQAGGSLRLSCAASGITFGSYAMGWYRHAPGKERELVAAIRWRGGNTYYADSVKGRFTISRDNAKNTVYLQMNSLKPEDTAVYSCAARRYGYRYDQPYYNDYWGQGTQVTVSS,low polyreactivity
17,QVQLVESGGGLVQAGGSLRLSCAASGITFGSYAMGWYRQAPGKEREFVAAISLSGGNTYYADSVKGRFTISRDNAKNTVYLQMNSLKPEDTAVYYCAADYEYSGYGYWGQGTQVTVSS,high polyreactivity
18,QVQLVESGGGLVQAGGSLRLSCAASGITFGSYAMGWYRQAPGKERELVAAITSGGGTNYADSVKGRFTISRDNPKNTVYLQMNSLKPEDTAVYYCAARYYYLGTRYGYWGQGTQVTVSS,low polyreactivity
19,QVQLVESGGGLVQAGGSLRLSCAASGITFGTYAMGWYRQATGKERELVDAITRGGRTYYADSVKGRFTISRDNDKNTVYLQMYSLKPEDTAVYYCNAYVLRRYGWRSGDDYDYWGQGTQVNVSS,high polyreactivity
20,QVQLVESGGGLVQAGGSLRLSCAASGITFGVNAMGGSRQAPGKERELVAAITQRGDSTYYADSVKGRFTISRDTAKNTLDLQMNSLKPEDTAVYYCNADYAWRFPVTYDYWGQGTQVTVSS,low polyreactivity
21,QVQLVESGGGLVQAGGSLRLSCAASGITFGVYGMGWYRQAPGKERELVAAISRTGGSTYYADSVKGRFTISRDNAKNTVYLQMNSLKPEDTAVYYCAADRYRRVAKHGYWGQGTQVTVSS,high polyreactivity
22,QVQLVESGGGLVQAGGSLRLSCAASGITFGYYAMGWYRQAPGKEREFVAGITTSGGTTYYADSVKGRFTISRDNENNTVYLHMNSLKPEDTAVYYCAVYGGVKRGSFYYWGQGTQVTVSS,low polyreactivity

row,Sequence,polyreactivity (PSR sort gate)
1,QVQLVESGGGLVQAGGSLRLSCAASGITFGYYAMGWYRQAPGKERELVAAISWSGDSTYYADSVKGRFTISRDNAKNTVSLQMNSLKPEDTPVYYCTRGSSWEYGAEYNYWGQGTQVTVSS,low polyreactivity
2,QVQLVESGGGLVQAGGSLRLSCAASGITFGYYAMGWYRQAPGKERELVASISWSGDSTYYADSVKGRFTISRDNAKNTVYLQMNSLKPEDTAVYYCNRGSSWEYGAEYNYWGQGTQETVSS,low polyreactivity
3,QVQLVESGGGLVQAGGSLRLSCAASGITFGYYAMGWYRQAPGKERELVATITDGGGTKYADSVKGRFTISRDNAKNTVYLQINSLKPEDTAVYYCAAGLRHVYATEYDYWGQGTQVTVSS,low polyreactivity
4,QVQLVESGGGLVQAGGSLRLSCAASGITFGYYAMGWYRQAPGKERELVATLTDGGGTKYADSVKGRFTISRDNAMNTVYLQMDSLKPEDTAVYYCAAGLRHVYATEYDYWGQGTQVTVSS,low polyreactivity
5,QVQLVESGGGLVQAGGSLRLSCAASGITFHDNAMGWYRQAPGKERELVAGSTSGGSTFYADSVKGRFTISRDNAKNTVYLQMNSLKPEDTAVYYCAARRSKYRRGGGYYWGQGTQVTVSS,high polyreactivity
6,QVQLVESGGGLVQAGGSLRLSCAASGITFHKYAMGWYRQAPGKESELVAAISSGGGTYYADSVKGRFTISRDNAKNTVYLQMNSLKPEDTAVYYCNADIEWLWVRYDYWGQGTQVTVSS,high polyreactivity
7,QVQLVESGGGLVQAGGSLRLSCAASGITFIIYVMGWYRQAPGKERELVAAISSTGSTYYADSVKGRFTISRDNAKNTVYLQMNSLKPEDTAVYYCAARGRRSSNGFYYWGQGTQVTVSS,high polyreactivity
8,QVQLVESGGGLVQAGGSLRLSCAASGITFIKNAMGWYRQAPGKERELVAAISRSGGRTYYADSVKGRFTISRDNAKNTVYLQMNSLKPEDTAVYYCAAVTQRSYFYDYWGQGTQVTVSS,high polyreactivity
9,QVQLVESGGGLVQAGGSLRLSCAASGITFILYAMGWYRQAPGKERELVASITSGGSTDYADSVKGRFTISRDNAKTTVYLQMNSLKPEDTAVYYCAADGRTYHHHDGGWYRYDYWGQGTQVTVSS,low polyreactivity
10,QVQLVESGGGLVQAGGSLRLSCAASGITFISYAMGWYRQAPGKERELVAVISKSGGRTYYADSVKGRFTISRDNAKNTVYLQMNSLKPEDTAVYYCAATKRYASGMYYWGQGTQVTVSS,high polyreactivity
11,QVQLVESGGGLVQAGGSLRLSCAASGITFIVKTMGWYRQAPGKEREFVATISANSDGTYYADSVKGRFTISRDNAKNTVYLQMNSLKPEDTAVYYWGQGTQVTVSS,low polyreactivity
12,QVQLVESGGGLVQAGGSLRLSCAASGITFIWYAMGWYRQAPGKERELVAAISTSGGSTYYADSVKGRFTISRDNAKNTVYLQMNSLKPEDTAVYYCAAVSGGVSRSYDRYYWGQGTQVTVSS,high polyreactivity
13,QVQLVESGGGLVQAGGSLRLSCAASGITFIYYAMGWYSQAPGKDRELVAAISRSGGSTYYADSVKGRFTISRDNAKNTVYLQMNSLKPEETAVYYCAADGSKYSGRVTGDYWGQGTQVTVSS,high polyreactivity
14,QVQLVESGGGLVQAGGSLRLSCAASGITFKAYAMGWYRQAPGKERELVAAINTSGARTYYADSVKGRFTISRDNAKNTVYLQMNSLKPEDTAVYYCNARLHQQEGDYWGQGTQVTVSS,low polyreactivity
15,QVQLVESGGGLVQAGGSLRLSCAASGITFKDYAMGWYRQATGKERELVAVISYSGGSTYYADSVKGRFTISRDNAKNTVYLEMNSLKPEDTAVYYCAARVGPEYDWGQGTQVTVSS,low polyreactivity
16,QVQLVESGGGLVQAGGSLRLSCAASGITFKPYAMGWYRQAPGKERELVATITFRGGSTYYADSVKGRFTISRDNAKNTVYLQMNSLNPEDTAVYYCAAVTRRYVLSTFYYWGQGTQVTVSS,high polyreactivity
17,QVQLVESGGGLVQAGGSLRLSCAASGITFKPYGMGWSRQAPGKERELVADITSGGITYYADSVKGRFTISRDNAKNTVYLQMNSLKPEDTAVYYCAAPYQQHVYHHYWGQGTQVTVSS,low polyreactivity
18,QVQLVESGGGLVQAGGSLRLSCAASGITFKPYGMGWYRPAPGKERELVADITSGGITYYADSVKGRFTISRDNAKNTVYLQMNSLKPEDTAVYYCATGDLFVYYWGYVVRLYDYWGQGTQVTVSS,low polyreactivity
19,QVQLVESGGGLVQAGGSLRLSCAASGITFKRYAMGWYRQAPGKERELVAAITISAGSTYYADSVKGRFTISRDNAKNTVYLQMNSLKPEDTAVYYCAAESYGSWYYYWGQGTQVTVSS,high polyreactivity
20,QVQLVESGGGLVQAGGSLRLSCAASGITFKTYAMGWYRQAPGKVRELVATITRGSRTNYADSVKGRFTISRDNAKNTVYLQMNSLKREHTAVYYCAAHYTTFIRSPDGDYLGQGTQVTVSS,low polyreactivity
21,QVQLVESGGGLVQAGGSLRLSCAASGITFKWNALGWYRQAPGKERELVAVISSDGRTYYADSVKWRFTISRDKAKNTVYLQMNSLKPEDTAVYYCNADRSVIHRGYIWQPGRNDYWGQGTQVTVSS,low polyreactivity
